In US20220073643A1 (NANJING GENSCRIPT BIOTECH, published 2022) one finds EC50 data, which are given here for 21 molecules.

The chains are these.
B1: 252F1B10 (antibody, V domains shown)
VH: QAYLQQSGAELVRSGASVKMSCKASGYTFTSHNMHWVKQTPGQGLEWIGYIYPGNGGTNYNQKFKGKATLTADTSSSTAYMQINSLTSEDSAVYFCTRDYYGNSFAYWGQGTLVTVSA
VL: DIVMTQSPSSLTEKAGERVSMSCKSSQSLFNSGNQKNYLTWYQQKPGQPPKLLIYWASTRESGVPDRFTGSGSGTDFTLTISSVQAEDLAVYYCQNDYRYPFTFGAGTKLELK
notes: mouse hybridoma mAb
B2: 219F9B8 (antibody, V domains shown)
VH: QAYLQQSGAELVRSGASVRMSCKASGYTFTSYNMHWVKQTPGQGLEWIGYIYPGNGHTNYNQKFKGKATLTADTSSSTAYMQISSLTSEDSAVYFCATGRGFAYWGQGTLVTVSA
VL: DIVMTQSPSSLTVTAGEKVTMSCKSSQSLLNSGNQKNYLTWYQQKPGQPPKLLIYRASTRESGVPDRFTGSGSGTDFTLTISSVQAEDLAVYYCQNDYSYPLTFGVGTKLELK
notes: mouse hybridoma mAb
B3: 203A6C9 (antibody, V domains shown)
VH: QVQLKQSGPGLVQPSQSLSITCTVSGFSLTRYGVHWVRQSPGKGLEWLGVIWSGGNTDYNAAFISRLNIRKDNSKSQVFFKMNSLKPNDTAIYYCARAAYFGNSFDYWGQGTTLTVSS
VL: DIVMTQSPSSLPVTAGEKVTMSCKSSQSLLNSGNQKNYLTWYQQKPGQPPKLLIYWASTRDSGVPDRFTGSGSGTDFTLTISSVQAEDLAVYYCQNNYIYPLTFGAGTKLELK
notes: mouse hybridoma mAb
B4: 241H10A1 (antibody, V domains shown)
VH: QVQLQQSGAELVKPGASVKLSCKASGYTFTSFGINWLRQRPEQGLEWIGWIFPGDGNSKYNENFKGKATLTTDKSSSTAYMQVTRLTSEDSAVYFCARFYYGNSFANWGQGTLVTVSA
VL: DIVMTQSPSSLTVTAGEKVTMSCKSSQSLLNSGNQKNYLTWYQQKPGQPPKLLIYWAATRESGVPDRFTGSGSGTDFTLTISSVQAEDLAVYYCQNDYFYPFTFGGGTKLELK
notes: mouse hybridoma mAb
B5: 194D3B2 (antibody, V domains shown)
VH: QAYLQQSGAELVRSGASVKMSCKASGYPFTSYNMHWVKQTPGQGLEWVGYIYPGNGGTNYNQKFRDKATLTADTSSSTAYMQISRLTSDDSAVYFCLTGRGFAYWGQGTLVTVSA
VL: DIVMTQSPSSLIVTPGERVTMSCKSSQSLLNSGNQKNYLTWYQQKPGQPPKLLIYRASTRESGVPDRFTGSGSGTDFTLTISSVQAEDLAVYYCQNDYSYPLTFGIGTKLELK
notes: mouse hybridoma mAb
B6: 198F10B8 (antibody, V domains shown)
VH: QAYLQQSGAELVRSGASVRMSCKASGYTFSSYNMHWVKQTPGQGLEWIGYIYPGNGGTNYNQKFKDKATLTADTSSSTAFIQISSLTSEDSAVYFCLTGRGFAYWGQGTLVTVSA
VL: DIVMTQSPSSLTVTAGERVTMSCKSSQSLFNSGNQKNYLTWYQQKPGQPPKLLIYRASTRESGVPDRFTGSGSGTDFTLTISSVQAEDLAVYYCQNDYSYPLTFGVGTKLELK
notes: mouse hybridoma mAb
B7: 182D10F1 (antibody, V domains shown)
VH: QAYLQQSGAELVRSGASVKMSCKASGYTFSSYNMHWVKQTPGQGLEWIGYIYPGNGGTNYNQKFKGKATLTADTSSSTAYMQISSLTSEDSAVYFCLTGRGFTYWGQGTLVTVSA
VL: DIVMTQSPSSLTVTAGEKVTMNCKSSQSLFNSGNQKNYLTWYQQKPGQPPKLLIYRASTRESGVPDRFTGSGSGTDFTLTISSVQAEDLAVYYCQNDYSYPLTFGVGTKLELK
notes: mouse hybridoma mAb
B8: 257F1E11 (antibody, V domains shown)
VH: QAYLQQSGAELVRSGASVKMSCKASGYTFTSHNIHWVKQTPRQGLEWIGYIYPGNGGTNYNQKFKGKATLTADTSSSTAYMQISSLTSEDSAVYFCTRDYYGNSFAYWGQGTLVTVSA
VL: DIVMTQSPSSLTEKAGERVSMSCKSSQSLFNSGNQKNYLTWYQQKPGQPPKLLIYWASTRESGVPDRFTGSGSGTDFTLTISSVQAEDLAIYYCQNDYWYPFTFGAGTKLELK
notes: mouse hybridoma mAb
B9: 262H9H6 (antibody, V domains shown)
VH: QAYLQQSGAELVRSGASVKMSCKASGYTFTSHNMHWVKQTPGQGLEWIGYISPGNGYTNYNQKFRGKATLTADTSSSTAYMQISSLTSEDSAVYFCTRDYYGNSFTYWGQGTLVTVSA
VL: DIVMTQSPSSLTEKAGERVSMSCKSSQSLFNSGNQKNYLTWYQQKPGQPPKLLIYWASTRESGVPDRFTGSGSGTEFTLTISSVQAEDLAVYYCQNNYWFPFTFGAGTKLELK
notes: mouse hybridoma mAb
B10: 257G7F7 (antibody, V domains shown)
VH: QAYLQQSGAELVRSGASVKMSCKASGYTFTSHNLHWVKQTPGQGLEWIGYIYPGNGNTNYNQKFKGKATLTADTSSSTAYMQISSLTSEDSAVYFCTRDYYGNSFAYWGQGTLVTVSA
VL: DIVMTQSPSSLTEKAGERVSMSCKSSQSLFNSGNQKNYLTWYQQKPGQPPKLLIYWASTRESGVPDRFTGSGSGTDFTLTISSVQAEDLAVYYCQNNYWFPFTFGAGTKLELK
notes: mouse hybridoma mAb
B11: 267H5F12 (antibody, V domains shown)
VH: QAYLQQSGAELVRSGASVKMSCKASGYTFTSHNMHWVKQTPGQGLEWIGYISPGNGYTNYNQKFRGKATLTADTSSSTAYMQISSLTSEDSAVYFCTRDYYGNSFTYWGQGTLVTVSA
VL: DIVMTQSPSSLTEKAGERVSMSCKSSQSLFNSGNQKNYLTWYQQKPGQPPKLLIYWASTRESGVPDRFTGSGSGTEFTLTISSVQAEDLAVYYCQNNYWFPFTFGAGTKLELK
notes: mouse hybridoma mAb
B12: 258D11C4 (antibody, V domains shown)
VH: QAYLQQSGAELVRSGASVKMSCKASGYTFSSHNMHWVKQTPGQGLEWIGYIYPGNGGTNYNQKFKGKATLTADTSSSTAYMQISSLTSEDSAVYFCTRDYYGNSFAYWGQGTLVTVSA
VL: DIVMTQSPSSLTEKAGERVSMSCKSSQSLFNSGNQKNYLTWYQQKPGQPPKLLIYWASTRQSGVPDRFTGSGSGTDFTLTISSVQAEDLAVYYCQNDYWFPFTFGAGTKLELK
notes: mouse hybridoma mAb
B13: 257B1G9 (antibody, V domains shown)
VH: QAYLQQSGAELVRSGASVKMSCKASGYTFTSHNMHWVKQTPGQGLEWIGYIYPGNGGTNYNQKFKGKATLTADTSSSTAYMQISSLTSEDSAVYFCTRDYYGNSFAYWGQGTLVTVSA
VL: DIVMTQSPSSLTERAGERVSMSCKSSQSLFNSGNQKNYLTWYQQKPGQPPKLLIYWASTRESGVPDRFTGSGSGTDFTLTISSVQAEDLAVYYCQNDYRYPFTFGAGTKLELK
notes: mouse hybridoma mAb
B14: 259C6F4 (antibody, V domains shown)
VH: QAYLQQSGAELVRSGASVKMSCKASGYTFSSHNIHWVKQTPGQGLEWIGYIYPGNGDTNYNQKFKGKATLTADTSSSTAYMQISSLTSEDSAVYFCARDYYGNSFVYWGQGTLVTVSA
VL: DIVMIQSPSSLTEKAGEKVSMSCKSSQSLLNSGNQKNYLTWYQQKPGQPPKLLIYWASTRESGVPDRFTGSGSGTDFTLTISSVQAEDLAVYYCQNAYRFPFTFGAGTKLELK
notes: mouse hybridoma mAb
B15: 213B10A4 (antibody, V domains shown)
VH: QAYVQQSGAELVRSGASVKMSCRASGYTFTSYNMHWVKQTPGQGLEWIGYIYPGNGGTYYNQKFKGKATLTADTSSSTAYMQISSLTSEDSAVYFCATGRGFAYWGQGTLVTVSA
VL: DIVMTQSPSSLTVTAGEKVTMSCKSSQSLLNSGNQKNYLTWYQQKPGQPPKLLIYRASTRESGVPDRFTGSGFGTDFTLTISSVQAEDLAVYYCQNDYSYPLTFGAGTKLELK
notes: mouse hybridoma mAb
B16: 226A4B5 (antibody, V domains shown)
VH: QAYLQQSGAELVRSGASVRMSCKASGFTFTSYNIHWVKQTPGQGLEWIGYIYPGSGGSNYNQKFMGKATLTADTSSSTVYMQISSLTSEDSAVYFCATGRGFAYWGQGTLVTVSA
VL: DIVMTQSPSSLTVTAGEKVTMSCKSSQSLFNSGNQKNYLTWYQQKPGQPPKLLIYRASTRESGVPDRFTGSGSGTDFTLTISSVQAEDLAVYYCQNDYSYPLTFGTGTKLELK
notes: mouse hybridoma mAb
B17: 257G7B9 (antibody, V domains shown)
VH: QAYLQQSGAELVRSGASVKMSCKASGYTFTSHNLHWVKQTPGQGLEWIGYIYPGNGNTNYNQKFKGKATLTADTSSSTAYMQISSLTSEDSAVYFCTRDYYGNSFAYWGQGTLVTVSA
VL: DIVMTQSPSSLTEKAGERVSMSCKSSQSLFNSGNQKNYLTWYQQKPGQPPKLLIYWASTRESGVPDRFTGSGSGTDFTLTISSVQAEDLAVYYCQNNYWFPFTFGAGTKLELK
notes: mouse hybridoma mAb
B18: 260G9E8 (antibody, V domains shown)
VH: QADLQQSGAELVRSGASVKMSCKASGYTFASHNMHWVKQTPGQGLEWIGYIYPGNGGTKYNQKFTGKATLTADTSSSTAYMQITSLTSEDSAVYFCARDYYGNSFAYWGQGTLVTVSA
VL: DIVMTQSPSSLTEKAGEKVSMRCKSSQSLLNSGNQKNYLTWYQQKPGQPPKLLIYWASTRESGVPDRFTGSGSGTDFTLTISSVQADDLAVYYCQNDYMFPFTFGAGTKLELK
notes: mouse hybridoma mAb
B19: 259C6F7 (antibody, V domains shown)
VH: QAYLQQSGAELVRSGASVKMSCKASGYTFSSHNIHWVKQTPGQGLEWIGYIYPGNGDTNYNQKFKGKATLTADTSSSTAYMQISSLTSEDSAVYFCARDYYGNSFVYWGQGTLVTVSA
VL: DIVMIQSPSSLTEKAGEKVSMSCKSSQSLLNSGNQKNYLTWYQQKPGQPPKLLIYWASTRESGVPDRFTGSGSGTDFTLTISSVQAEDLAVYYCQNAYRFPFTFGAGTKLELK
notes: mouse hybridoma mAb
B20: 256C3D3 (antibody, V domains shown)
VH: QAYLQQSGAELVRSGASVKMSCKASGYAFTSHNMHWVKQTPGQGLEWIGYISPGNGYTNYNQKFRGKATLTADTSSSTAYMQIGSLTSEDSAVYFCTRDYYGNSFAYWGQGTLVTVSA
VL: DIVMTQSPSSLTEKAGERVSMSCKSSQSLFNSGNQKNYLTWYQQKPGQPPKLLIYWASTRESGVPDRFTGSGSGTDFTLTISSVQAEDLAVYYCQNNYWFPFTFGAGTKLELK
notes: mouse hybridoma mAb
B21: 277F1F8 (antibody, V domains shown)
VH: QAYLQQSGPELVRSGASVKMSCKASGYTFTSHNMHWVKQTPGQGLEWIGYINPGNGGNNYNQKFKGKATLTADTSSSTAYMQISSLTSEDSAVYFCARDYYGNSFAFWGQGTLVTVSA
VL: DIVMTQSPSSLTETAGEKVSMSCKSSQSLLNSGNQKNYLTWYQQKPGQPPKLLIYWASTRESGVPDRFTGSGSGTDFTLTISSVQAEDLAVYYCQNDYRFPFTFGAGTKLELK
notes: mouse hybridoma mAb

In this test the target is T1, human Claudin18.2 (human).
T1 construct: also called CLDN18.2
Kind of test: cell ELISA, Claudin18.2-expressing HEK293T cells. The method, then: To determine protein binding EC₅₀ by Cell ELISA, 96-well U-bottom microplates were pre-blocked with blocking buffer (5% MPBS, 1×PBS with 5% skim milk) overnight at 4° C. On the next day, the Claudin18.2-expressing HEK293T stable cell line was suspended at 1.5×10⁶ cells/ml in blocking buffer, added to the plate in 100 μl/well and incubated at room temperature for 1 hour.
Raw data were plotted with GraphPad Prism v6.02 software with four parameters, best-fit value program to analyze the EC₅₀.
B1 gave a concentration giving a half-maximal response (EC50) of 0.53 nM.

In turn, B2 came in with an EC50 of 1.16 nM.

B3 registered an EC50 of 0.916 nM.

In turn, B4 gave an EC50 of 1.66 nM.

Turning to B5, the response was half-maximal at 1.09 nM (EC50).

In turn, B6 registered a 50% effective concentration (EC50) of 1.82 nM.

B7 registered a concentration giving a half-maximal response (EC50) of 1.65 nM.

Molecule B8 showed a half-maximal effective concentration (EC50) of 57.8 nM.

Consider B9, for which the response was half-maximal at 0.879 nM (EC50).

B10: the concentration for a half-maximal effect (EC50) is ~0.413 nM.

B11: the EC50 is ~0.513 nM.

On to B12, for which the concentration giving a half-maximal response (EC50) is ~0.406 nM.

Molecule B13 had a concentration giving a half-maximal response (EC50) of 0.948 nM.

In turn, B14 returned a concentration for a half-maximal effect (EC50) of 2.32 nM.

As for B15, the concentration giving a half-maximal response (EC50) was 2.33 nM.

In turn, B16 came in with an EC50 of 1.59 nM.

As to B17, it took 1.02 nM to reach a half-maximal effect (EC50).

In turn, B18 showed an EC50 of 0.821 nM.

With B19, the concentration giving a half-maximal response (EC50) was ~0.443 nM.

The molecule B20 had a half-maximal effective concentration (EC50) of 0.729 nM.

On to B21, for which the EC50 was ~4410 nM.
